Results as given in US20160222130A1 (Astellas, published 2016).

B1: TIE-1-Igγ1-LALA (antibody, human IgG1, kappa, L234A L235A)
heavy: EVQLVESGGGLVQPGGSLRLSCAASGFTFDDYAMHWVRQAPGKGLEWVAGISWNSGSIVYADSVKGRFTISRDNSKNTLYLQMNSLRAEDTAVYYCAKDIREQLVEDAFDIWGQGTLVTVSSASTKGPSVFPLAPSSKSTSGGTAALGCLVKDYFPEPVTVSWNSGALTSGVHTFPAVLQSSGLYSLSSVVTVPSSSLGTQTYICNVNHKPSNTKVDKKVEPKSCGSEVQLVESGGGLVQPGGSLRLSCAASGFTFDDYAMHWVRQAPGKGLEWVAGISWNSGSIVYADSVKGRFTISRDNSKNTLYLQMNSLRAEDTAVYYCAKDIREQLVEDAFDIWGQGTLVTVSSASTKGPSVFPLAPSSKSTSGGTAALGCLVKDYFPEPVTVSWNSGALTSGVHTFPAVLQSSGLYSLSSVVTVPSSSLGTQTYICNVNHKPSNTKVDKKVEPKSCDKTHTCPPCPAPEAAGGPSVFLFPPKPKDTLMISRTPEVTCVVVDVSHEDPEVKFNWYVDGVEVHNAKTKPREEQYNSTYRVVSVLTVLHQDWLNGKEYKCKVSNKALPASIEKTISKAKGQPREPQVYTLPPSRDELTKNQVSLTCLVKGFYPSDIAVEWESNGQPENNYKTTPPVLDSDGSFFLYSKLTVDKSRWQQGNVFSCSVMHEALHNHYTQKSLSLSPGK
light: DIQMTQSPSSLSASVGDRVTITCRSSQSLLHSHRYNYLDWYQQKPGKAPKLLIYLGSNRASGVPSRFSGSGSGTDFTLTISSVQPEDFATYYCMQTLQTPLTFGQGTKVEIKRTVAAPSVFIFPPSDEQLKSGTASVVCLLNNFYPREAKVQWKVDNALQSGNSQESVTEQDSKDSTYSLSSTLTLSKADYEKHKVYACEVTHQGLSSPVTKSFNRGEC
notes: Tandem tetravalent format: two heavy chains (VH-CH1-linker-VH-CH1-CH2-CH3) and four light chains; also called tetravalent anti-human Tie2 antibody with L234A, L235A and P331S
B2: fully human 2-16A2-Fab (Fab, V domains shown)
VH: EVQLVESGGGLVQPGGSLRLSCAASGFTFDDYAMHWVRQAPGKGLEWVAGISWNSGSIVYADSVKGRFTISRDNSKNTLYLQMNSLRAEDTAVYYCAKDIREQLVEDAFDIWGQGTLVTVSS
VL: DIQMTQSPSSLSASVGDRVTITCRSSQSLLHSHRYNYLDWYQQKPGKAPKLLIYLGSNRASGVPSRFSGSGSGTDFTLTISSVQPEDFATYYCMQTLQTPLTFGQGTKVEIKR
notes: also called Fab of the fully human 2-16A2

Columns and labels:
Human Tie2 (1-452)r6-Fc = target: T1, Human Tie2 (1-452)r6-Fc (human, UniProt Q02763 23-452); test: ELISA; Tie2-Fc coated at 1 ug/mL; signal at 100 ng/mL antibody vs convergence value on the parent
T1 construct: range 1-452
Procedure: (§1) The next day, the immobilized solution was removed, and the plate was washed with a TBS-T solution, and incubated for 60 minutes by the addition of 50 μL of a Blocker™ Casein in TBS (Thermo Fisher Scientific Inc., 37532) to perform blocking. The resultant was washed with a TBS-T solution, and TIE-1-Igγ1-LALA, diluted with 0.05% Tween 20 (Nacalai Tesque Inc., 28353-85)—containing Blocker™ Casein in TBS from 0.03 ng/mL to 100 ng/mL through eight steps, was added thereto in the amount of 20 μL per well. The resultant was incubated at room temperature for 90 minutes and then washed with a TBS-T solution three times, and 20 μL of a biotin-labeled anti-human kappa light chain antibody, which had been diluted to 0.1 μg/mL with 0.05% Tween 20-containing Blocker™ Casein in TBS, was added thereto. The resultant was incubated at room temperature for 60 minutes and then washed with a TBS-T solution three times, and 20 μL of alkaline phosphatase-labeled streptavidin, which had been diluted to 0.1 μg/mL with 0.05% Tween 20-containing Blocker™ Casein in TBS, was added thereto. The resultant was incubated at room temperature for 60 minutes and then washed with a TBS-T solution three times, and 50 μL of Chemiluminescent Ultra Sensitive AP Microwell and/or Membrane Substrate (450 nm), which had been 5-fold diluted with 1 mM MgCl₂-containing 20 mM TBS (pH 9.8) as a substrate, was added thereto. The resultant was incubated at room temperature under light-shielding for 40 minutes, and then luminescent intensity thereof was measured with an EnVision™ multi-label counter. The EC₅₀ value of TIE-1-Igγ1-LALA with respect to the human Tie2 (1-452)-Fc chimeric protein and 23 mutant proteins thereof were calculated. The relative value of luminescent intensity of 100 ng/mL TIE-1-Igγ1-LALA as maximum concentration point with respect to human Tie2 (1-452)-Fc chimeric protein and 23 mutant proteins thereof when the convergence value of the sigmoid curve of TIE-1-Igγ1-LALA binding to the human Tie2 (1-452)-Fc chimeric protein which was taken as 100% was calculated (Table 8 and Table 9). Further, the EC₅₀ value and the convergence value were calculated by Sigmoid-Emax model non-linear regression analysis.

Human Tie2 (1-452)r7-Fc = target: T2, Human Tie2 (1-452)r7-Fc (human, UniProt Q02763 23-452); test: as above
T2 construct: range 1-452
Procedure: as §1

Human Tie2 (1-452)g5-Fc = target: T3, Human Tie2 (1-452)g5-Fc (human, UniProt Q02763 23-452); test: as above
T3 construct: range 1-452
Procedure: as §1

Human Tie2 (1-452)r2-Fc = target: T4, Human Tie2 (1-452)r2-Fc (human, UniProt Q02763 23-452); test: SPR (Biacore T200); Tie2-Fc captured on anti-human IgG (Fc), Fab at 50 nM; mean of 3
T4 construct: range 1-452
Procedure: (§2) SPR analysis was carried out in order to evaluate the binding activity of the human Tie2 (1-452)-Fc chimera protein and 23 mutant proteins thereof to the fully human 2-16A2-Fab.
(§3) For SPR analysis, Biacore T200 (GE Healthcare) was used. An anti-human IgG (Fc) antibody (Human Antibody Capture Kit, GE Healthcare) was fixed onto a CM5 sensor chip. The human Tie2 (1-452)-Fc chimeric protein and 23 mutant proteins thereof, diluted with HBS-EP (GE Healthcare) at 5 μg/mL, were each allowed for immobilization, and the capture-amount was measured. Thereafter, the fully human 2-16A2-Fab diluted with HBS-EP to 50 nM, the binding amount thereof to the human Tie2 (1-452)-Fc chimeric protein and 23 mutant proteins thereof were measured. Further, by dividing the binding amount with the capture-amount, the binding amount of the antibody in the unit immobilized antigen (hereinafter referred to as a binding ratio) was calculated. The arithmetic mean of three experiments and the relative value of the binding ratio of each mutant proteins when the binding ratio of the human Tie2 (1-452)-Fc chimeric protein was taken as 100% are shown in Table 7.

Human Tie2 (1-452)r3-Fc = target: T5, Human Tie2 (1-452)r3-Fc (human, UniProt Q02763 23-452); test: as above
T5 construct: range 1-452
Procedure: as §2, §3

Human Tie2 (1-452)r4-Fc = target: T6, Human Tie2 (1-452)r4-Fc (human, UniProt Q02763 23-452); test: as above
T6 construct: range 1-452
Procedure: as §2, §3

Human Tie2 (1-452)r5-Fc = target: T7, Human Tie2 (1-452)r5-Fc (human, UniProt Q02763 23-452); test: as above
T7 construct: range 1-452
Procedure: as §2, §3

Human Tie2 (1-452)c1-Fc = target: T8, Human Tie2 (1-452)c1-Fc (human, UniProt Q02763 23-452); test: as above
T8 construct: range 1-452
Procedure: as §2, §3

Human Tie2 (1-452)A2-Fc = target: T9, Human Tie2 (1-452)A2-Fc (human, UniProt Q02763 23-452); test: as above
T9 construct: range 1-452
Procedure: as §2, §3

Human Tie2 (1-452)A6-Fc = target: T10, Human Tie2 (1-452)A6-Fc (human, UniProt Q02763 23-452); test: as above
T10 construct: range 1-452
Procedure: as §2, §3

Human Tie2 (1-452)r1-Fc = target: T11, Human Tie2 (1-452)r1-Fc (human, UniProt Q02763 23-452); test: as above
T11 construct: range 1-452
Procedure: as §2, §3

T10 sequence (Q02763 other isoform, or with tags, fused parts or gaps limits assumed, form in doubt): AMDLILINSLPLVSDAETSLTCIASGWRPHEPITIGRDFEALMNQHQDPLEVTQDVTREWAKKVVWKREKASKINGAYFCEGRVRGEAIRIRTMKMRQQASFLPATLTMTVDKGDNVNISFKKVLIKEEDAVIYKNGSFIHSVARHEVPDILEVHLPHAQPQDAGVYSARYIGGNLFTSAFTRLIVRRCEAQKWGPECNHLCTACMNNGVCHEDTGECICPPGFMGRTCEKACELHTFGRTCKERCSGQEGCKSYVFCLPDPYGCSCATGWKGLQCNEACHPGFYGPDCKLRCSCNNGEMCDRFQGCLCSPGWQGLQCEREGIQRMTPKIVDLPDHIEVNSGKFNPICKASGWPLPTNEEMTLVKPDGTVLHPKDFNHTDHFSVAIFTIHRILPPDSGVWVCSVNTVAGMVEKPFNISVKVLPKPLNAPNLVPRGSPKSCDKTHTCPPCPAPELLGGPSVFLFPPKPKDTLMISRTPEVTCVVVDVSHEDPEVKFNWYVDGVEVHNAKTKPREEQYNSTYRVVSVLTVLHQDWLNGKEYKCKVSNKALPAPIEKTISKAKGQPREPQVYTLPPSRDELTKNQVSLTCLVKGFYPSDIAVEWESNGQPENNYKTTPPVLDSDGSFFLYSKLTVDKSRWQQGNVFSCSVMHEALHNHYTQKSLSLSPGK
T11 sequence (Q02763 other isoform, or with tags, fused parts or gaps limits assumed, form in doubt): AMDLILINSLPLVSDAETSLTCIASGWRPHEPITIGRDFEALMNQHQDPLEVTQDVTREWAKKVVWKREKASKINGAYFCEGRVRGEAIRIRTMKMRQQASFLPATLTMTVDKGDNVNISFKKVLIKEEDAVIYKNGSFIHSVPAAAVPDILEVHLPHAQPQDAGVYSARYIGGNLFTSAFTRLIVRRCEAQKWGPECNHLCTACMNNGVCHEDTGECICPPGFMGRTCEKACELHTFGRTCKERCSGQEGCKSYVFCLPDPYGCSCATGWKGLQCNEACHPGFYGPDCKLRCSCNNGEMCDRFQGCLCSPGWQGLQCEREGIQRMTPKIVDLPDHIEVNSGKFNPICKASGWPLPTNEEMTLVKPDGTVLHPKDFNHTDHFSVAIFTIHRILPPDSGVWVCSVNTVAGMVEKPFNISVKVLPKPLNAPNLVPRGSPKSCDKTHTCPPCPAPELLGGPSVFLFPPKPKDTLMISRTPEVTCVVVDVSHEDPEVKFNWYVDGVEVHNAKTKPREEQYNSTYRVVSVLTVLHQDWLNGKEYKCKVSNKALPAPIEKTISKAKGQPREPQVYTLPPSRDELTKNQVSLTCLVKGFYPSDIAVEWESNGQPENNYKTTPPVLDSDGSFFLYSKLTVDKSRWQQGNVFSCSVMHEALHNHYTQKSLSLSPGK
T8 sequence (Q02763 other isoform, or with tags, fused parts or gaps limits assumed, form in doubt): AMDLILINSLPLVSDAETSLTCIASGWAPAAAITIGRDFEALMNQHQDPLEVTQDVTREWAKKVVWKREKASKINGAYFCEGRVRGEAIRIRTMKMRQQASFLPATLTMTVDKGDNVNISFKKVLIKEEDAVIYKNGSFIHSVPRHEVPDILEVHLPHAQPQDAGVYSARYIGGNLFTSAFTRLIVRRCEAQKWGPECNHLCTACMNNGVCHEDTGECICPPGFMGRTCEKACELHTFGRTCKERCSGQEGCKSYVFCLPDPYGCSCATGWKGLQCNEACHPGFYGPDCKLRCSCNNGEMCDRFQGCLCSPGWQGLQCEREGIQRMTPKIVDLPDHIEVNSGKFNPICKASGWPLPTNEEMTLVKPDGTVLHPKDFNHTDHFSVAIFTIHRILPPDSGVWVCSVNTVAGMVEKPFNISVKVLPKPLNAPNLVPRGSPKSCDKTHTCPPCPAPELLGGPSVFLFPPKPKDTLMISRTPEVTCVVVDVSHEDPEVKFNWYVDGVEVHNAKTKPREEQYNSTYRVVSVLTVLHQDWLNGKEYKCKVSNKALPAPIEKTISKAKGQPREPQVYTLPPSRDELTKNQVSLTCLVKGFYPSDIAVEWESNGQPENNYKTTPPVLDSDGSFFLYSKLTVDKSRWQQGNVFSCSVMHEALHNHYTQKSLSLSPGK
T5 sequence (Q02763 other isoform, or with tags, fused parts or gaps limits assumed, form in doubt): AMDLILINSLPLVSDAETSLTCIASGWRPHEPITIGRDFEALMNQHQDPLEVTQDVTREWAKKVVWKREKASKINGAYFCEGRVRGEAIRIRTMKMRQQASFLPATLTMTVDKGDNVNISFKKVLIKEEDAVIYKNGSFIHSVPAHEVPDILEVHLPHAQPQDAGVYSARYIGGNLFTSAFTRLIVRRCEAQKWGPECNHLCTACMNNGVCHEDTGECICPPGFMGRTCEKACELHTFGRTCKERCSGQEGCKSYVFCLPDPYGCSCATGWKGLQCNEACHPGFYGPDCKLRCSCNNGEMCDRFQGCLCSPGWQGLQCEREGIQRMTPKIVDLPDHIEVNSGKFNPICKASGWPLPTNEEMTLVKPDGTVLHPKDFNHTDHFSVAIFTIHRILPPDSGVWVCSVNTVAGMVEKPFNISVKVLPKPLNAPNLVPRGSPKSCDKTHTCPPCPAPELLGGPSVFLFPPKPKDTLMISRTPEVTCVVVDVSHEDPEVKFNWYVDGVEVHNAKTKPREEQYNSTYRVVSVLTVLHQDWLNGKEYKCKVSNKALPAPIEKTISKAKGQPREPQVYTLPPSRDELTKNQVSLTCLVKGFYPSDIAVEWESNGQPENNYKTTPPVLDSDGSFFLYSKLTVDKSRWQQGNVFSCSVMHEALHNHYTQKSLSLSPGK
T4 sequence (Q02763 other isoform, or with tags, fused parts or gaps limits assumed, form in doubt): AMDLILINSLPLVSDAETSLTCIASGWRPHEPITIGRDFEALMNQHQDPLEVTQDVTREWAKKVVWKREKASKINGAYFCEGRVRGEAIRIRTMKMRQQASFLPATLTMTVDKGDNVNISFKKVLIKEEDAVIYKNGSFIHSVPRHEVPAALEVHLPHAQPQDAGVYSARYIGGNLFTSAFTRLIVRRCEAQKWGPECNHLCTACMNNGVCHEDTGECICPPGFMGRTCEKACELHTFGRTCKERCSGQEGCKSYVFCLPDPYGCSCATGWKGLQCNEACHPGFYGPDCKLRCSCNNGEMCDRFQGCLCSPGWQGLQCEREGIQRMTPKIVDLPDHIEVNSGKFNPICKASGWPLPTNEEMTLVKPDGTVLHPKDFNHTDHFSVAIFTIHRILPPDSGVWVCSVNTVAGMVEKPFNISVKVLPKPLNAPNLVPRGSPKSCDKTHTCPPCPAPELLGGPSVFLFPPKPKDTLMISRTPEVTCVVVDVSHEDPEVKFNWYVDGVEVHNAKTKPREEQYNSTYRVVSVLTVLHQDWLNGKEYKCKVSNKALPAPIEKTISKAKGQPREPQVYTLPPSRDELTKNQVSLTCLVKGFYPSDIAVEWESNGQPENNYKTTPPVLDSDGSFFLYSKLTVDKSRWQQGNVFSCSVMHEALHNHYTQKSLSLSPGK
T7 sequence (Q02763 other isoform, or with tags, fused parts or gaps limits assumed, form in doubt): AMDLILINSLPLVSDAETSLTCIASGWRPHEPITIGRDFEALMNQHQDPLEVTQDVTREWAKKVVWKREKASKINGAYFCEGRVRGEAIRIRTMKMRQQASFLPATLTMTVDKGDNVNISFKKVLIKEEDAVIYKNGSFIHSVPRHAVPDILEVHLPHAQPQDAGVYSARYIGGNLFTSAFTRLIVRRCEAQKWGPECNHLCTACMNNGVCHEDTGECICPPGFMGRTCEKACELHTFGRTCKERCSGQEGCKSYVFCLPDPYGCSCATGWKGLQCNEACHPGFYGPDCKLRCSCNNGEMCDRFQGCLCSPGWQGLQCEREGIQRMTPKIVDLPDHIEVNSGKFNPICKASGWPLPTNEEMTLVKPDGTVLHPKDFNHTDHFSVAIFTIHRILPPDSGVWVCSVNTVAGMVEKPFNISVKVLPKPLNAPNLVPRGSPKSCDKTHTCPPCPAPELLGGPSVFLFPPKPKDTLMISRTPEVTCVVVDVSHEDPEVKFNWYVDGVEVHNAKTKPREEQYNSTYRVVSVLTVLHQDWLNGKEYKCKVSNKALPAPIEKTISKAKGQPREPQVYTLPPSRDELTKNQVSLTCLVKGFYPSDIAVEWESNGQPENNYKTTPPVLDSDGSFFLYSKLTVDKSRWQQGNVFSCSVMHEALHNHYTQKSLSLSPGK

| Binder | Relative value (%) of luminescent intensity (Human Tie2 (1-452)r6-Fc) | Relative value (%) of luminescent intensity (Human Tie2 (1-452)r7-Fc) | Relative value (%) of luminescent intensity (Human Tie2 (1-452)g5-Fc) | Binding ratio (Human Tie2 (1-452)r2-Fc) | Relative value (%) of binding ratio (human Tie2 (1-452)-Fc chimeric protein = 100%) (Human Tie2 (1-452)r2-Fc) | Binding ratio (Human Tie2 (1-452)r3-Fc) | Relative value (%) of binding ratio (human Tie2 (1-452)-Fc chimeric protein = 100%) (Human Tie2 (1-452)r3-Fc) | Binding ratio (Human Tie2 (1-452)r4-Fc) | Relative value (%) of binding ratio (human Tie2 (1-452)-Fc chimeric protein = 100%) (Human Tie2 (1-452)r4-Fc) | Binding ratio (Human Tie2 (1-452)r5-Fc) | Relative value (%) of binding ratio (human Tie2 (1-452)-Fc chimeric protein = 100%) (Human Tie2 (1-452)r5-Fc) | Binding ratio (Human Tie2 (1-452)c1-Fc) | Relative value (%) of binding ratio (human Tie2 (1-452)-Fc chimeric protein = 100%) (Human Tie2 (1-452)c1-Fc) | Binding ratio (Human Tie2 (1-452)A2-Fc) | Relative value (%) of binding ratio (human Tie2 (1-452)-Fc chimeric protein = 100%) (Human Tie2 (1-452)A2-Fc) | Binding ratio (Human Tie2 (1-452)A6-Fc) | Relative value (%) of binding ratio (human Tie2 (1-452)-Fc chimeric protein = 100%) (Human Tie2 (1-452)A6-Fc) | Binding ratio (Human Tie2 (1-452)r1-Fc) | Relative value (%) of binding ratio (human Tie2 (1-452)-Fc chimeric protein = 100%) (Human Tie2 (1-452)r1-Fc) |
| --- | --- | --- | --- | --- | --- | --- | --- | --- | --- | --- | --- | --- | --- | --- | --- | --- | --- | --- | --- |
| B1 | 100% | 100% | 91% |  |  |  |  |  |  |  |  |  |  |  |  |  |  |  |  |
| B2 |  |  |  | 0.28 | 98% | 0.34 | 119% | 0.33 | 113% | 0.29 | 99% | 0.54 | 189% | 0.08 | 29% | 0.31 | 109% | 0.29 | 102% |
